Experimental data taken from patent US20070148164A1 (Biogen, published 2007).

B1: A287D (antibody)
heavy: not shown
light: DIQMTQSPSSLSASVGDRVTITCKAGQDIKSYLSWYQQKPGKAPKLLIYYATRLADGVPSRFSGSGSGTDYTLTISSLQPEDFATYYCLQHGESPWTFGGGTKLEIKRTVAAPSVFIFPPSDEQLKSGTASVVCLLNNFYPREAKVQWKVDNALQSGNSQESVTEQDSKDSTYSLSSTLTLSKADYEKHKVYACEVTHQGLSSPVTKSFNRGEC
notes: EU numbering, EU N297 = residue 300 of the chain; the sheets number them 2 and 4; also called huCBE11 altered antibody with mutation A287D; copies: 2 + 2
B2: K288D (antibody, human IgG1, kappa)
heavy: not shown
light: B1 light
notes: EU numbering, EU N297 = residue 300 of the chain; the sheets number them 2 and 4; also called huCBE11 altered antibody with mutation K288D; copies: 2 + 2
B3: H285F (antibody)
heavy: not shown
light: B1 light
notes: EU numbering, EU N297 = residue 300 of the chain; the sheets number them 2 and 4; also called huCBE11 altered antibody with mutation H285F; copies: 2 + 2
B4: K288E (antibody, human IgG1, kappa)
heavy: not shown
light: B1 light
notes: EU numbering, EU N297 = residue 300 of the chain; the sheets number them 2 and 4; also called huCBE11 altered antibody with mutation K288E; copies: 2 + 2
B5: huCBE11 altered antibody with mutation M252S (antibody, human IgG1, kappa)
heavy: not shown
light: B1 light
notes: Position is in EU numbering
B6: huCBE11 altered antibody with mutation Q438E (antibody, human IgG1, kappa)
heavy: not shown
light: B1 light
notes: Position is in EU numbering
B7: E345R (antibody)
heavy: not shown
light: B1 light
notes: EU numbering, EU N297 = residue 300 of the chain; the sheets number them 2 and 4; also called huCBE11 altered antibody with mutation E345R; copies: 2 + 2
B8: S304E (antibody, human IgG1, kappa)
heavy: not shown
light: B1 light
notes: EU numbering, EU N297 = residue 300 of the chain; the sheets number them 2 and 4; also called huCBE11 altered antibody with mutation S304E; copies: 2 + 2
B9: D376N (antibody)
heavy: not shown
light: B1 light
notes: EU numbering, EU N297 = residue 300 of the chain; the sheets number them 2 and 4; also called huCBE11 altered antibody with mutation D376N; copies: 2 + 2
B10: huCBE11 altered antibody with mutation V282E (antibody, human IgG1, kappa)
heavy: not shown
light: B1 light
notes: Position is in EU numbering
B11: R255M (antibody)
heavy: not shown
light: B1 light
notes: EU numbering, EU N297 = residue 300 of the chain; the sheets number them 2 and 4; also called huCBE11 altered antibody with mutation R255M; copies: 2 + 2
B12: V279E (antibody, human IgG1, kappa)
heavy: not shown
light: B1 light
notes: EU numbering, EU N297 = residue 300 of the chain; the sheets number them 2 and 4; also called huCBE11 altered antibody with mutation V279E; copies: 2 + 2
B13: K288M (antibody)
heavy: not shown
light: B1 light
notes: EU numbering, EU N297 = residue 300 of the chain; the sheets number them 2 and 4; also called huCBE11 altered antibody with mutation K288M; copies: 2 + 2
B14: A287E (antibody)
heavy: not shown
light: B1 light
notes: EU numbering, EU N297 = residue 300 of the chain; the sheets number them 2 and 4; also called huCBE11 altered antibody with mutation A287E; copies: 2 + 2
B15: huCBE11 altered antibody with mutation M252T (antibody, human IgG1, kappa)
heavy: not shown
light: B1 light
notes: Position is in EU numbering
B16: V284D (antibody, human IgG1, kappa)
heavy: not shown
light: B1 light
notes: EU numbering, EU N297 = residue 300 of the chain; the sheets number them 2 and 4; also called huCBE11 altered antibody with mutation V284D; copies: 2 + 2
B17: huCBE11 altered antibody with mutation S304D (antibody, human IgG1, kappa)
heavy: not shown
light: B1 light
notes: Position is in EU numbering
B18: R255L (antibody)
heavy: not shown
light: B1 light
notes: EU numbering, EU N297 = residue 300 of the chain; the sheets number them 2 and 4; also called huCBE11 altered antibody with mutation R255L; copies: 2 + 2
B19: E345Q (antibody, human IgG1, kappa)
heavy: not shown
light: B1 light
notes: EU numbering, EU N297 = residue 300 of the chain; the sheets number them 2 and 4; also called huCBE11 altered antibody with mutation E345Q; copies: 2 + 2
B20: huCBE11 altered antibody with mutation K290D (antibody, human IgG1, kappa)
heavy: not shown
light: B1 light
notes: Position is in EU numbering
B21: huCBE11 altered antibody with mutation N434L (antibody, human IgG1, kappa)
heavy: not shown
light: B1 light
notes: Position is in EU numbering
B22: L314K (antibody)
heavy: not shown
light: B1 light
notes: EU numbering, EU N297 = residue 300 of the chain; the sheets number them 2 and 4; also called huCBE11 altered antibody with mutation L314K; copies: 2 + 2
B23: H285D (antibody, human IgG1, kappa)
heavy: not shown
light: B1 light
notes: EU numbering, EU N297 = residue 300 of the chain; the sheets number them 2 and 4; also called huCBE11 altered antibody with mutation H285D; copies: 2 + 2

Legend:
[1] = target: T1, biotinylated human FcRn-huM4Fc fusion protein (human, biotinylated with BiotinXX sulfosuccinimidyl ester (sites not given)); assay: FRET competition at pH 5.8: unlabelled competitor mAb against Eu-labelled h5C8 for bhFcRnFc; plotted is mutant IC50/wt IC50
T1 construct: also called bhFcRnFc; biotinylated Fc/FcRn fusion protein

[2] = target: T1, biotinylated human FcRn-huM4Fc fusion …; assay: AlphaScreen competition at pH 6.0: antibody in solution against human IgG1 acceptor beads for bhFcRnFc on streptavidin donor beads; plotted is IC50 (ug/ml by paragraph 723, no unit on the sheet)
[3] = target: T1, biotinylated human FcRn-huM4Fc fusion …; assay: AlphaScreen competition, pH 6.0: altered antibody against human IgG1 acceptor beads for biotinylated hFcRnFc; reference control antibody
[4] = target: T1, biotinylated human FcRn-huM4Fc fusion …; assay: FRET competition, pH 5.8: competitor mAb against Eu-labelled h5C8 for biotinylated hFcRnFc; reference w.t. control antibody

| Binder | binding result [1] | further results |
| --- | --- | --- |
| B1 | binds | – |
| B2 | – | binding result [2]: binds |
| B3 | binds | – |
| B4 | – | binding result [2]: binds |
| B5 | binds | – |
| B6 | – | fold lower FcRn binding affinity than the control antibody [3]: ~1500 fold |
| B7 | binds | – |
| B8 | binds | – |
| B9 | binds | – |
| B10 | binds | – |
| B11 | binds | – |
| B12 | binds | – |
| B13 | – | binding result [2]: binds |
| B14 | – | binding result [2]: binds |
| B15 | binds | – |
| B16 | binds | – |
| B17 | binds | – |
| B18 | – | binding result [2]: binds |
| B19 | binds | – |
| B20 | binds | – |
| B21 | – | fold lower FcRn binding affinity than the control antibody [4]: ~4000 fold |
| B22 | binds | – |
| B23 | binds | – |
